Laboratory results from US20260217822A1 (SANA BIOTECHNOLOGY, published 2026).
Like-named read-outs stand apart in the source and are kept apart here.

B1: CAR 400 (VH-VL) CD19 chimeric antigen receptor (receptor)
chain: EVQLVQSGAEVKKPGESLKISCKGSGYSFTSYWIGWVRQMPGKGLEWMGIIYPGDSDTRYSPSFQGQVTISADKSISTAYLQWSSLKASDTAMYYCARLPFVGATTGGFDYWGQGTLVTVSSGGGGSGGGGSGGGGSQSVVTQPASVSGSPGQSITISCTGTSSDVGGYNYVSWYQQHPGKAPKLVIYEVSNRPSGVSNRFSGSKSGNTASLTISGLQAEDEADYYCSSYTSSSTLVFGGGTKLTVLTTTPAPRPPTPAPTIASQPLSLRPEACRPAAGGAVHTRGLDFACDIYIWAPLAGTCGVLLLSLVITLYCKRGRKKLLYIFKQPFMRPVQTTQEEDGCSCRFPEEEEGGCELRVKFSRSADAPAYQQGQNQLYNELNLGRREEYDVLDKRRGRDPEMGGKPRRKNPQEGLYNELQKDKMAEAYSEIGMKGERRRGKGHDGLYQGLSTATKDTYDALHMQALPPR
B2: CD19 Binder 1 (scFv, V domains shown)
VH: EVQLVESGGGLIQPGGSLRLSCAASGFTVSSNYMSWVRQAPGKGLEWVSVIYSGGSTYYADSVKGRFTISRDNSKNTLYLQMNSLRAEDTAVYYCARDGGLDTLYGMDVWGQGTTVTVSS
VL: QSVVTQPPSVSGAPGQRVTISCTGSSSNIGAGYDVHWYQQLPGTAPKLLIYGNSNRPSGVPDRFSGSKSGTSASLAITGLQAEDEADYYCQSYDSSLSGSYVFGTGTKVTVL
B3: CD19 Binder 2 (scFv, V domains shown)
VH: EVHLVESGGGLVQPGGSLRLSCAASGFTFSDYYMSWIRQAPGKGLEWVSYISSSGSTTYYADSVKGRFTISRDNAKNSLYLQMNSLRAEDTAVYYCARVEGWSLLDYWGQGTLVTVSS
VL: QSVLTQPPSVSAAPGQKVTMSCSGSSSNIGNNYVSWYQQLPGTAPKLLIYDNNKRPSGIPDRFSGSKSGTSATLGITGLQTGDEADYYCGTWDSSLGAVVFGGGTKVTVL
B4: CD19 Binder 3 (scFv, V domains shown)
VH: EVQLVQSGAEVKKPGESLKISCKGSGYSFTSYWIGWVRQMPGKGLEWMGIIYPGDSDTRYSPSFQGQVTISADKSISTAYLQWSSLKASDTAMYYCARLPFVGATTGGFDYWGQGTLVTVSS
VL: QSVVTQPASVSGSPGQSITISCTGTSSDVGGYNYVSWYQQHPGKAPKLVIYEVSNRPSGVSNRFSGSKSGNTASLTISGLQAEDEADYYCSSYTSSSTLVFGGGTKLTVL

Columns and labels:
[1] = target: T1, CD19 on CD19+ cells (Raji cells; NALM-6 tumor cells) (UniProt P15391 20-556, limits assumed); experiment: cell-based or functional assay
T1 sequence (looked up): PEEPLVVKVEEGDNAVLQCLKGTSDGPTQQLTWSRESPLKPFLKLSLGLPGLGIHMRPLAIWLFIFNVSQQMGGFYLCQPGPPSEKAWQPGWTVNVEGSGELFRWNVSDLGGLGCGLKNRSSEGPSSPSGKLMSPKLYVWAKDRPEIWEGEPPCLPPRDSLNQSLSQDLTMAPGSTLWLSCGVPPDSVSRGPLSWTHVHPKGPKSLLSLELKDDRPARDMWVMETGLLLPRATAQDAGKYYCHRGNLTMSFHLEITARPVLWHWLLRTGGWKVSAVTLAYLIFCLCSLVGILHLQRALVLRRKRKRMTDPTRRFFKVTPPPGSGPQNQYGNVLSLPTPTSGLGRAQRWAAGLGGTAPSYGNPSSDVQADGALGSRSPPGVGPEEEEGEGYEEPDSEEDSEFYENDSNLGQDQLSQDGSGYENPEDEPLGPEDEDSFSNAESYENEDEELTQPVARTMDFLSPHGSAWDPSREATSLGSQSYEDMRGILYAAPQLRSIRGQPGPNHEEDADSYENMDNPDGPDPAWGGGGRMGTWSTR

[2] = target: T1, CD19 on CD19+ cells (Raji cells; NALM-6 …); experiment: flow cytometry, binder incubated with CD19+ Raji cells
recombinant CD19 [3] = target: T2, recombinant CD19 (UniProt P15391 20-291, limits assumed); experiment: ELISA on recombinant CD19, OD at 405 nm against antibody concentration
T2 construct: also called Cluster of Differentiation 19; B-lymphocyte antigen CD19
T2 sequence (looked up): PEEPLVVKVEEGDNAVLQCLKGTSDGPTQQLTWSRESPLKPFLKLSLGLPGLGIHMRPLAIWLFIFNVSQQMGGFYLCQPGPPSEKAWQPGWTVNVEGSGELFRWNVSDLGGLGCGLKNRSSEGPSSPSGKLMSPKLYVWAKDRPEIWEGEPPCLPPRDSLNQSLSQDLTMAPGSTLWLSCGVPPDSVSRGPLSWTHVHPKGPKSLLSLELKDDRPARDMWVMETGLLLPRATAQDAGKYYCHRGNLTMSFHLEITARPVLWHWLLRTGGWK

recombinant CD19 [4] = target: T2, recombinant CD19; experiment: ELISA on recombinant CD19, OD at 405 nm
recombinant CD19 [5] = target: T2, recombinant CD19; experiment: ELISA on recombinant CD19, OD at 405 nm against antibody concentration; remark: listed apart in the source
recombinant CD19 [6] = target: T2, recombinant CD19; experiment: as above; remark: listed apart in the source

Row | Binder | NALM-6 survival percentage after 24-hour co-culture with hypoimmune CAR T cells, E:T ratio of 1:32 (luciferase read-out) [1] [%] | EC50 [2] [µg/mL] | EC50 (read off the curve) (recombinant CD19 [3]) [µg/mL] | EC50 (recombinant CD19 [4]) [µg/mL] | EC50 (read off the curve) (recombinant CD19 [5]) [µg/mL] | EC50 (read off the curve) (recombinant CD19 [6]) [µg/mL]
1 | B1 | < 20 | – | – | – | – | –
2 | B2 | – | 0.041 | ~0.1 | 0.099 | – | –
3 | B3 | – | 0.073 | – | 0.27 | ~0.3 | –
4 | B4 | – | 1.2 | – | 0.044 | – | ~0.04
